The values below come from patent US9327008B2, “Cell-permeant peptide-based inhibitor of kinases” (Purdue Research Foundation, priority 2008, dated 2016).

What is called pIC50 is the negative decadic logarithm of the IC50, by convention in mol/L.

pIC50: −log10 of the molar value. Non-standard residues stand in square brackets, D forms with d. No end group written: not given here.

Assay [1] has as its system IL-1β induced IL-6 expression in mesothelial cells (CRL-9444). Nature of the assay: IL-6 ELISA, mesothelial cells induced with IL-1β. Type of assay: cell-based. Conditions: IL-1β 1 ng/ml; Rottlerin 1 μM. A general note: In an ELISA, binding on a coated surface is turned into a signal by an enzyme label.
Assay [2] concerns IL-6 expression induced by TNF-α in mesothelial cells (CRL-9444). Nature of the assay: IL-6 ELISA, mesothelial cells induced with TNF-α. Type of assay: cell-based. How it is done: A cell line of pleural mesothelial cells (CRL-9444) was purchased from American Type Culture Collection. Cells were maintained and seeded in Medium 199 with Earle's BSS and 0.75 mM L-glutamine (Mediatech, Inc., Manassas, Va.), 1.25 g/L sodium bicarbonate (Sigma, St. Louis, Mo.), 3.3 nM epidermal growth factor (MBL International, Woburn, Mass.), 40 nM hydrocortisone (Sigma), 870 nM insulin (MBL International), 20 mM HEPES (Sigma), trace elements mixture B (Mediatech, Inc.), 10% fetal bovine serum (FBS) (Hyclone, Waltham, Mass.) and 1% penicillin/streptomycin (Mediatech, Inc.). Prior to treating cells with therapeutic inhibitor peptides, cells were allowed to acclimate in serum-free media consisting of only Medium 199 with Earle's BSS. L-glutamine, sodium bicarbonate, HEPES, trace elements mixture B, and penicillin/streptomycin (concentrations and suppliers as above) for 24 hours prior to treatment with cytokines and/or inhibitor peptides. […]
Standards (from 2 ng/ml to zero) and samples were prepared in diluent, immediately added to each well in triplicate, and incubated at room temperature for at least 2 hours on a plate shaker adjusted to 300 rpm. […] Hoeschst 33342 nuclear stain (Invitrogen) was used to quantify cell number on the basis of DNA quantity. […]
Results are presented as means±standard deviation. […] Significant differences were analyzed with Tukey HSD post hoc comparisons. […]

Assay [3] relates to MK2. Conditions: commercially available inhibitor; kinase not named at the place, used as inhibitor of MK2 (and PRAK); cited from earlier work.
Assay [4] concerns the target MK2 (Homo sapiens, UniProt P49137). Nature of the assay: Omnia fluorescence-based kinase activity assay for MAPKAP-K2 (reaction velocity). To be noted: for MK2 inhibition (in words): PTD peptide alone, 12.5-100 μM. The format is biochemical. The arrangement: purchased Invitrogen. How it is done: The Omnia® Kinase Assay for MAPKAP-K2 kit (Invitrogen, Carlsbad, Calif.), was used to determine the reaction velocity for MK2 in the presence and absence of each of the peptides listed in Table 1. The kit contains a proprietary reaction buffer to which the following were added (final concentrations are given): 1 mM ATP, 0.2 mM DTT, 10 μM MAPKAP-K2 Sox-modified peptide substrate, 5 ng MK2, and the inhibitor peptide of interest (final volume of 50 μL). Human MK2 was purchased from Invitrogen. The reactions were performed at 30° C. in the wells of a low-protein-binding 96-well plate provided with the kit, and fluorescence readings (excitation=360 nm, emission=485 nm) were taken every 30 seconds for 20 minutes using a SpectraMax M5 Spectrophotometer (Molecular Devices). Reaction velocity was determined for each reaction well from the slope of a plot of relative fluorescence units versus time. Each inhibitor peptide was tested at least at four concentrations, 12.5, 25, 50 and […], in triplicate.
In Table 1, “a” represents that the results shown are for 100 μM for all peptides; “b” represents the percentage change in MK2 reaction velocity versus the unsubstituted peptide ([…]) [SEQ ID NO: 13] at a concentration of 100 μM; “c” represents the error reported as the standard deviation between three samples.

Assay [5] relates to Ca2+/calmodulin-dependent protein kinase II (CaMKII). To be noted: cited from earlier work.
In a further assay the test system is PKA. To be noted: AIP 1 μM; cited from earlier work.
A further assay concerns PKC. Conditions: AIP 1 μM; cited from earlier work.
In a further assay the target is CaMKIV (Homo sapiens, UniProt Q16566). To be noted: AIP 1 μM; cited from earlier work.
The mark [6] stands for this setting: 100 μM peptide, percentage change in MK2 reaction velocity versus unsubstituted KALNRQLGVAA at 100 μM, SD of three samples.

MK2 (Homo sapiens, UniProt P49137), sequence (P49137 whole entry): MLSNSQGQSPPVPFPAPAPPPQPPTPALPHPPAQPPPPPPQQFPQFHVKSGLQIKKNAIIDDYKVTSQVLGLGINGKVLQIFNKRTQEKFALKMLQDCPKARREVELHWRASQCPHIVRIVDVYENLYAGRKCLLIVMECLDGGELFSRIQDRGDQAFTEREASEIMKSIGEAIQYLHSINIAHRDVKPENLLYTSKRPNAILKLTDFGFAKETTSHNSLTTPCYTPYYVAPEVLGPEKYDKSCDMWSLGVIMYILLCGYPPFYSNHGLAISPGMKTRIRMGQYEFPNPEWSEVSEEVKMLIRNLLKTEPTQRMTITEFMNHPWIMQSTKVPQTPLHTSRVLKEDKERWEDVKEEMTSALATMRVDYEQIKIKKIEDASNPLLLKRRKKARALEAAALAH
CaMKIV, sequence (Q16566 whole entry, species assumed): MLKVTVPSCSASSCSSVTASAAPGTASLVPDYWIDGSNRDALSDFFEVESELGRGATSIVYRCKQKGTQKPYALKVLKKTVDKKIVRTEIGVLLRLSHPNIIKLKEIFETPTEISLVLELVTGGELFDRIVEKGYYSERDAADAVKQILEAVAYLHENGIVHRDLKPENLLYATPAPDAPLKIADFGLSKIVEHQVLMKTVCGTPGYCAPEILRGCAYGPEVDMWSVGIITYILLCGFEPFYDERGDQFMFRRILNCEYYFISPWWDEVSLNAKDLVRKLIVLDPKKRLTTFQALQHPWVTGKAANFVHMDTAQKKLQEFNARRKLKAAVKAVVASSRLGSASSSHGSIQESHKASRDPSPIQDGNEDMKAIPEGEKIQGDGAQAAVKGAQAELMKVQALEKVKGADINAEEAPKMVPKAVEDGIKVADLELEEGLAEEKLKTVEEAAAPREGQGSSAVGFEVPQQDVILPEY

On to `CC(=O)c1c(O)c(C)c(O)c(Cc2c(O)c3c(c(C(=O)/C=C/c4ccccc4)c2O)OC(C)(C)C=C3)c1O` [Rottlerin], for which, in assay [1], the “IL-1β induced IL-6 expression (FIG. 7)” value is on record as “significantly reduced” and the “time at which significant reduction of IL-1β induced IL-6 expression occurs” value amounted to 12 h. In addition, the “level of expression of IL-6 induced by TNF-α (FIG. 8)” value in assay [2] (TNF-α 1 ng/ml) was “ineffective”. Moreover, in assay [2] (TNF-α 10 ng/ml, initially, from 6-12 hours), the “level of expression of IL-6 induced by TNF-α (FIG. 9)” value is given as “minimal reduction”. Besides, the pIC50 with MK2 [3] is 5.30. In the case of “KAANRQLGVAA [therapeutic domain, alanine substitution]”, the “percent change in MK2 reaction velocity versus unsubstituted peptide” value (shortened to “percent change”) in the assay with MK2 [4] (setting [6]) was “+52(6) %”. Consider “KALARQLGVAA [therapeutic domain, alanine substitution]”, for which the “percent change” value with MK2 [4] (setting [6]) is −61(2) %. With “KALNAQLGVAA [therapeutic domain, alanine substitution]”, in the assay with MK2 [4] (setting [6]), the “percent change” value is “+258(14) %”. Consider “KALNRQAGVAA [therapeutic domain, alanine substitution]”, for which, in the assay with MK2 [4] (setting [6]), the “percent change” value is “+18(7) %”. Regarding “KALNRQLAVAA [therapeutic domain, alanine substitution]”, the “percent change” value in the assay with MK2 [4] (setting [6]) is given as −28(5) %. Still for that read-out and setting: with “KALNRQLGAAA [therapeutic domain, alanine substitution]” the entry was “+273(22) %”. On to “KALNRQLGVA [therapeutic domain without C-terminal Ala]”, for which the “percent change” value with MK2 [4] (setting [6]) is 0(5) %. For the compound “KALNRQLGVAA [unsubstituted therapeutic domain peptide]”, the “inhibition of MK2 activity” value in the assay with MK2 [4] (100 μM peptide) is recorded as 73%. In the assay with MK2 [4] (setting [6]), the “percent change” value was “+258(26) %”. Turning to “KALNRQLGdVAA (KALNRQLG[dV]AA) [therapeutic domain, D-amino acid substitution]”, the “percent change” value in the assay with MK2 [4] (setting [6]) is listed as “+160(23) %”.

With “KALNRQdLGVAA (KALNRQ[dL]GVAA-NH2) [therapeutic domain, D-amino acid substitution]”, the “percent change” value in the assay with MK2 [4] (setting [6]) is “+257(17) %”. As for “KALNRdQLGVAA (KALNR[dQ]LGVAA-NH2) [therapeutic domain, D-amino acid substitution]”, in the assay with MK2 [4] (setting [6]), the “percent change” value is reported as “+176(5) %”. Regarding “KALNdRQLGVAA (KALN[dR]QLGVAA-NH2) [therapeutic domain, D-amino acid substitution]”, the “percent change” value with MK2 [4] (setting [6]) is “+206(7) %”.

For “KALdNRQLGVAA (KAL[dN]RQLGVAA-NH2) [therapeutic domain, D-amino acid substitution]”, the “percent change” value in the assay with MK2 [4] (setting [6]) was −5(10) %. Turning to “KAdLNRQLGVAA (KA[dL]NRQLGVAA-NH2) [therapeutic domain, D-amino acid substitution]”, the “percent change” value in the assay with MK2 [4] (setting [6]) is 46(7) %. With “KKALRRQEAVDAL [AIP, autocamtide-2 related inhibitory peptide]”, in assay [5] (AIP 1 μM), the CaMKII activity entry was “inhibited completely”. In addition, the pIC50 in assay [5] was 7.00. Also, the PKA activity result in the assay on PKA is “not affected”. Further, in the assay with PKC, the PKC activity result was “not affected”. In addition, at CaMKIV, the CaMKIV activity result is listed as “not affected”. In the case of “KKKALNRQLGVAA [therapeutic domain with two additional N-terminal Lys]”, the “percent change” value with MK2 [4] (setting [6]) is on record as −9(8) %. In turn, “WLRRIKA [cell penetrating peptide domain (non-functional)]” yielded a % of KALNRQLGVAA [SEQ ID NO: 13] Reaction Velocity (+VoSD) in the assay with MK2 [4] (setting [6]) of 306%. For “WLRRIKAWLRRIKA [protein transduction domain peptide]”, the “percent change” value with MK2 [4] (setting [6]) is −83(4) %. Also, in the assay with MK2 [4], the “MK2 inhibition (in words)” value was “potently inhibited”. The corresponding values for “YARAAARQARA [synthetic protein transduction domain peptide PTD-4, reference compound]” are “+149(13) %” and “least affected”. With “YGRKKRRQRRR [protein transduction domain peptide, reference compound]”, the “inhibition of MK2 activity” value with MK2 [4] (25 μM peptide) amounted to 48%; with MK2 [4] (100 μM peptide), 61%. Also, the “percent change” value with MK2 [4] (setting [6]) is listed as “+44(17) %”.
